Reference: PMC8795186, “Structural basis for safe and efficient energy conversion in a respiratory supercomplex” (Nature Communications, 2022)
One block for each molecule: values may come before it.

B1: QcrB, cytochrome b subunit of the cyt bcc complex (natural protein, Corynebacterium glutamicum, UniProt Q79VE9 1-539, looked up)
chain: MSLATVGNNLDSRYTMASGIRRQINKVFPTHWSFMLGEIALYSFIVLLLTGVYLTLFFDPSITKVIYDGGYLPLNGVEMSRAYATALDISFEVRGGLFIRQMHHWAALLFVVSMLVHMLRIFFTGAFRRPREANWIIGVVLIILGMAEGFMGYSLPDDLLSGVGLRIMSAIIVGLPIIGTWMHWLIFGGDFPSDLMLDRFYIAHVLIIPAILLGLIAAHLALVWYQKHTQFPGAGRTENNVIGIRIMPLFAVKAVAFGLIVFGFLALLAGVTTINAIWNLGPYNPSQVSAGSQPDVYMLWTDGAARVMPAWELYLGNYTIPAVFWVAVMLGILVVLLVTYPFIERKFTGDDAHHNLLQRPRDVPVRTSLGVMALVFYILLTVSGGNDVYAMQFHVSLNAMTWIGRIGLIVGPAIAYFITYRLCIGLQRSDREVLEHGIETGIIKQMPNGAFIEVHQPLGPVDDHGHPIPLPYAGAAVPKQMNQLGYAEVETRGGFFGPDPEDIRAKAKEIEHANHIEEANTLRALNEANIERDKNEGKN
notes: QcrB, cytochrome b subunit (haem bL, haem bH) of the cytochrome bcc complex, Corynebacterium glutamicum; has a 102 residue C-terminal extension; source: endogenous, purified from C. glutamicum membranes as part of the supercomplex (DDM, DEAE Sepharose, size exclusion)

Assays:
[1] = molecular target: T1, cyt bcc-aa3 (III2-IV2) supercomplex; QcrB sites (Corynebacterium glutamicum, UniProt Q79VE9); test: cryo-EM structure; absorption spectroscopy; type: binding; settings: co-purified endogenous pigment; narrow tunnel of QcrB near Qo site
T1 construct: native supercomplex purified from C. glutamicum membranes in DDM; dimer of 13-subunit protomers; with Cytochrome bc1 complex Rieske iron-sulfur subunit; Cytochrome bc1 complex cytochrome c subunit; Cytochrome c oxidase subunit 1; Cytochrome c oxidase subunit 2; Cytochrome c oxidase subunit 3; Cytochrome c oxidase polypeptide 4; Supercomplex subunit P29; Supercomplex subunit P20; Supercomplex subunit P12; Supercomplex subunit P8; Supercomplex subunit P6; ThiX
T1 sequence (Q79VE9 1-539): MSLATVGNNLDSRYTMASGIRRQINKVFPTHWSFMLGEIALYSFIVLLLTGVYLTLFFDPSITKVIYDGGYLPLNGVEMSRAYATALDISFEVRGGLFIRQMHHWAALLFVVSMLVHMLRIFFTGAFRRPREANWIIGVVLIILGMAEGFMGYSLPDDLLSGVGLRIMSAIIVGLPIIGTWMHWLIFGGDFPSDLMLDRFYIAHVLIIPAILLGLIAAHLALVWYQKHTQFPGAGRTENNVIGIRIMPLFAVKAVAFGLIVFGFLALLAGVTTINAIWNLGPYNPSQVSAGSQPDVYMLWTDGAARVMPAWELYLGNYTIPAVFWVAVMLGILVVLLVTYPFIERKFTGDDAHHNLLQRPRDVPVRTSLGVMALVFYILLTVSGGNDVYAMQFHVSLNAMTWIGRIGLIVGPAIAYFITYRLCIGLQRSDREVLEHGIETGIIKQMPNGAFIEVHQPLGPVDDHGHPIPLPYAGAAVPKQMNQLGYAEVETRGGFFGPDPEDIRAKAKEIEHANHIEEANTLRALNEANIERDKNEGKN

[2] = molecular target: T2, cyt bcc-aa3 (III2-IV2) supercomplex; quinone sites of the cyt bcc complex (QcrB/QcrA) (Corynebacterium glutamicum, UniProt Q79VE8+Q79VE9); test: cryo-EM structure, […] Å; type: binding; settings: 20 µM stigmatellin, 2.5 mM azide also present; Qo site, transition-state analogue; QcrB and His355 of QcrA
T2 construct: native supercomplex purified from C. glutamicum membranes in DDM; dimer of 13-subunit protomers; with Cytochrome bc1 complex cytochrome c subunit; Cytochrome c oxidase subunit 1; Cytochrome c oxidase subunit 2; Cytochrome c oxidase subunit 3; Cytochrome c oxidase polypeptide 4; Supercomplex subunit P29; Supercomplex subunit P20; Supercomplex subunit P12; Supercomplex subunit P8; Supercomplex subunit P6; ThiX
T2 sequence (Q79VE9 1-539): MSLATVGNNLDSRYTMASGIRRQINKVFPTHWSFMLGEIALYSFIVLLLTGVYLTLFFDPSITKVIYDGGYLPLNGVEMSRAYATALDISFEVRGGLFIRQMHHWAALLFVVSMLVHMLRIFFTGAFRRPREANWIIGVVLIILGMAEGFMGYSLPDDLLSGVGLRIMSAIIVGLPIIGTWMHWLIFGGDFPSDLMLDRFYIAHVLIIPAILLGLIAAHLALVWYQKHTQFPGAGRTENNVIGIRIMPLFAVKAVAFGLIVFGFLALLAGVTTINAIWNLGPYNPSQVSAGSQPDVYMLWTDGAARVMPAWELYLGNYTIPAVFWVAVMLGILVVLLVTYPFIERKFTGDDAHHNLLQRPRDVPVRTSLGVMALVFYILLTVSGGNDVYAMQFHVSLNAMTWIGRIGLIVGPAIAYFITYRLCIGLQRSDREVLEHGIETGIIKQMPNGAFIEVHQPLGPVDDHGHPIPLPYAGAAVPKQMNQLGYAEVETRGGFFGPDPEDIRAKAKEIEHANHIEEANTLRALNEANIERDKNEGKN
T2 sequence (Q79VE8 1-408): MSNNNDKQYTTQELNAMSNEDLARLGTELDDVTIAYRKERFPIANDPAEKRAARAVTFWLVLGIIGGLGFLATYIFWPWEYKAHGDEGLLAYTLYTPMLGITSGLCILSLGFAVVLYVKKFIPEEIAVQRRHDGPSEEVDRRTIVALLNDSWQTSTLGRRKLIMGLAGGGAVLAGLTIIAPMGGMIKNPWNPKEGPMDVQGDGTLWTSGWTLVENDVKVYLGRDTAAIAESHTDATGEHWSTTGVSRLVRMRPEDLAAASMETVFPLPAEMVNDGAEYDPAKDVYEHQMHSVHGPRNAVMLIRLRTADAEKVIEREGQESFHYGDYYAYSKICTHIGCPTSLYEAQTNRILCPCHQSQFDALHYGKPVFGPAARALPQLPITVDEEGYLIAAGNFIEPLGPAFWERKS

[3] = molecular target: T3, CtaD, subunit of the cyt aa3 oxidase (haem a, haem a3, CuB) (Corynebacterium glutamicum, UniProt Q79VD7 1-584, His265 covalently bound to Tyr269); test: cryo-EM structure; supercomplex purified from C. glutamicum membranes in DDM, 10 mg/ml; with 20 µM stigmatellin and 2.5 mM sodium azide (2.8 Å) and as isolated (3.1 Å); settings: both partners purified
T3 construct: CtaD, catalytic subunit (haem a, haem a3, CuB) of the cytochrome aa3 oxidase, Corynebacterium glutamicum; source: endogenous, purified from C. glutamicum membranes as part of the supercomplex (DDM, DEAE Sepharose, size exclusion)
T3 sequence (looked up): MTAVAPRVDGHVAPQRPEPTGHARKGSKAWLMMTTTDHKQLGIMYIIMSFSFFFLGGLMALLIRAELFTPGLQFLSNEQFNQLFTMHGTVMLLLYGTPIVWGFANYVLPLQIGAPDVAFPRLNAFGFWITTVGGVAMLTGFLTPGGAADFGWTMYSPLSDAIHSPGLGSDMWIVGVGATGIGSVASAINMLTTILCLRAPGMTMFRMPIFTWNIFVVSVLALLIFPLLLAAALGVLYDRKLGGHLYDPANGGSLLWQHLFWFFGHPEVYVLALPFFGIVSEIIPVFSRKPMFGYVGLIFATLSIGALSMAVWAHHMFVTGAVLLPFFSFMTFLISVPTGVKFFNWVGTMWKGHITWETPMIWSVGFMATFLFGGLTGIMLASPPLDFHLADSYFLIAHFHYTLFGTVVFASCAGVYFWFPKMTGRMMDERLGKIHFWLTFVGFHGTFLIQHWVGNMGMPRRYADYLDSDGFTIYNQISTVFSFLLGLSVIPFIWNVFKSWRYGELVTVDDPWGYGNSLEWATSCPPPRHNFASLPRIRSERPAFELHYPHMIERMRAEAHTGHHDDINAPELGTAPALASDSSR

[4] = molecular target: B1; test: as above; settings: both partners purified
[5] = molecular target: the molecule itself; test: as above

Molecule: CC(C)=CCC/C(C)=C/C=C/C(C)=C/C=C/C(C)=C/C=C/C=C(C)/C=C/C=C(C)/C=C/C=C(\C)CCC=C(C)C [lycopene]
cryo-EM structure; absorption spectroscopy [1]: a lycopene molecule is resolved in a narrow tunnel of QcrB

Molecule: C/C=C(C)/C=C/C=C/[C@H](OC)[C@@H](C)[C@@H](OC)[C@@H](C)CCc1oc2c(O)c(OC)cc(OC)c2c(=O)c1C [stigmatellin]
cryo-EM structure, 2.8 Å [2]: The cryo-EM map clearly resolves stigmatellin bound between FeS and haem bL

Molecule: B1
binding result [3]: binds

More lines, main results first:

binding result [4]: binds
B2: CtaF, subunit of the cyt aa3 oxidase (natural protein, Corynebacterium glutamicum, UniProt Q8NNK3 1-143, looked up)
chain: MKSSAKLMYGPTVFMAAMAVIYIFATMHVSDGGSVKGVEWVGSVALVLSAGLTLMLGVYLHFTEVRVDVLPEDWEEAEVADKAGTLGFFSPSSIWPAAMSGAVGFLAFGVVYFHYWMIAVGLMLLIFTITKLNLQYGVPKEKH
notes: CtaF, subunit of the cytochrome aa3 oxidase, Corynebacterium glutamicum; source: endogenous, purified from C. glutamicum membranes as part of the supercomplex (DDM, DEAE Sepharose, size exclusion)

binding result [4]: binds
B3: CtaE, subunit of the cyt aa3 oxidase (natural protein, Corynebacterium glutamicum, UniProt Q9AEL8 1-205, looked up)
chain: MTSAVGNTGMAAPQRVAALNRPNMVSVGTIVFLSQELMFFAGLFAMYFVSRANGLANGSWGEQTDHLNVPYALLITVILVSSSVTCQFGVFAAERGDVYGLRKWFLVTIILGSIFVIGQGYEYITLVGHGLTIQSSVYGSAFFITTGFHALHVIAGVMAFVVVLMRIHKSKFTPAQATAAMVVSYYWHFVDVVWIGLFITIYFIQ
notes: CtaE, subunit of the cytochrome aa3 oxidase, Corynebacterium glutamicum; source: endogenous, purified from C. glutamicum membranes as part of the supercomplex (DDM, DEAE Sepharose, size exclusion)

binding result [4]: binds
B4: QcrA, Rieske-type iron-sulfur subunit of the cyt bcc complex (natural protein, Corynebacterium glutamicum, UniProt Q79VE8 1-408, looked up)
chain: MSNNNDKQYTTQELNAMSNEDLARLGTELDDVTIAYRKERFPIANDPAEKRAARAVTFWLVLGIIGGLGFLATYIFWPWEYKAHGDEGLLAYTLYTPMLGITSGLCILSLGFAVVLYVKKFIPEEIAVQRRHDGPSEEVDRRTIVALLNDSWQTSTLGRRKLIMGLAGGGAVLAGLTIIAPMGGMIKNPWNPKEGPMDVQGDGTLWTSGWTLVENDVKVYLGRDTAAIAESHTDATGEHWSTTGVSRLVRMRPEDLAAASMETVFPLPAEMVNDGAEYDPAKDVYEHQMHSVHGPRNAVMLIRLRTADAEKVIEREGQESFHYGDYYAYSKICTHIGCPTSLYEAQTNRILCPCHQSQFDALHYGKPVFGPAARALPQLPITVDEEGYLIAAGNFIEPLGPAFWERKS
notes: QcrA, Rieske-type iron-sulfur (2Fe-2S) subunit of the cytochrome bcc complex, Corynebacterium glutamicum; Carries the 2Fe-2S cluster (ligands His335, His355); QcrA crosses the dimer; also called QcrA´ (the copy of the second protomer); Rieske homologous subunit; source: endogenous, purified from C. glutamicum membranes as part of the supercomplex (DDM, DEAE Sepharose, size exclusion)
binding result [5]: binds
